Experimental findings from patent US20250066499A1 (SUNSHINE GUOJIAN PHARMACEUTICAL SHANGHAI, published 2025) are described below.

Assay [1] has as its target T1, CD73-ND-his (human, UniProt P21589 27-317).
T1 construct: Biotinylated and captured on streptavidin in the ELISA
T1 sequence: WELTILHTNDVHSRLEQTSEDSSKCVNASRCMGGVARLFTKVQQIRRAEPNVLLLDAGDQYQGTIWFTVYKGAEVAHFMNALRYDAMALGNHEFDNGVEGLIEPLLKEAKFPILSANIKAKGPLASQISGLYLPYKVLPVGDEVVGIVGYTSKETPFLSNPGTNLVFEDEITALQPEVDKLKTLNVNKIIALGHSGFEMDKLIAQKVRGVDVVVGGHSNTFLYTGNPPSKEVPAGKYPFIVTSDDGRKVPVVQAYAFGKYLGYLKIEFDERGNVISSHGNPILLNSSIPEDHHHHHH
The assay can be described thus: ELISA, high plateau value (OD 450 nm). As to the method:
(§1) The ELISA plates were coated with SA protein diluted to 1.5 μg/mL in coating buffer (50 mM carbonate coating buffer, pH 9.6) and incubated overnight at 4° C. The supernatant was discarded, and the plates were washed three times with PBST. Then, 5% skimmed milk powder prepared with PBS was added for blocking and the plates were incubated for 2 h at 37° C. After washing the plates once with PBST, CD73-biotin protein (prepared by biotinylating CD73-His protein according to the EZ-Link NHS-Biotin Reagent instructions) was diluted to 0.5 μg/mL and added at 100 μL/well for incubation at room temperature for 1 h. The plates were washed three times with PBST, and the prepared murine-derived monoclonal antibodies against human CD73 were serially diluted with 1% BSA buffer prepared with PBST and added to the ELISA plates at 100 μl/well. The plates were incubated at 37° C. for 1 h. After washing the plates three times with PBST, HRP-labeled goat anti-mouse IgG secondary antibody was added and the plates were incubated for 30 min at 37° C. After washing the plates three times with PBST, the residual droplets were patted dry on absorbent paper as much as possible. Then, 100 μl of TMB color developing solution was added to each well, and the plates were incubated in the dark at room temperature for 5 min for color development. Subsequently, 50 μl of 2M H₂SO₄ stop solution was added to each well to terminate the substrate reaction. The OD values were read at 450 nm using a multimode microplate reader to analyze the binding ability of the tested antibodies to the target antigen human CD73-His.
(§2) Referring to the experimental method in Example 3, the affinity of 48A11-HuV33 for various mutant proteins of CD73-ND was determined. The SA protein was diluted to 1 μg/mL for coating the ELISA plates, and the biotinylated CD73 protein (CD73-biotin) was used at a concentration of 0.1 μg/mL.
On the technique in general: ELISA stands for enzyme-linked immunosorbent assay.

A further assay concerns the target T2, CD73-ND-V186A (human, UniProt P21589 27-317).
T2 construct: Alanine mutant of CD73-ND
T2 sequence: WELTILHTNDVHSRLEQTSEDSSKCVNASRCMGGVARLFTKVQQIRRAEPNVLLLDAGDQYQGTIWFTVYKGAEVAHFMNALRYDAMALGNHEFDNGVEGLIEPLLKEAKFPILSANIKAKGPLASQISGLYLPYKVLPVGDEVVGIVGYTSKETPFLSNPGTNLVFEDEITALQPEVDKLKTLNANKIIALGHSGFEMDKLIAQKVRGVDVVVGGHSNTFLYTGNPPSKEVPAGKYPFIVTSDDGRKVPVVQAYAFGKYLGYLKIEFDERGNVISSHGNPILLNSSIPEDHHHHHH
Briefly: ELISA, high plateau value (OD 450 nm). As to the method:
as §1, §2

In another assay the target is T3, CD73-ND-N187A (human, UniProt P21589 27-317).
T3 construct: Alanine mutant of CD73-ND
T3 sequence: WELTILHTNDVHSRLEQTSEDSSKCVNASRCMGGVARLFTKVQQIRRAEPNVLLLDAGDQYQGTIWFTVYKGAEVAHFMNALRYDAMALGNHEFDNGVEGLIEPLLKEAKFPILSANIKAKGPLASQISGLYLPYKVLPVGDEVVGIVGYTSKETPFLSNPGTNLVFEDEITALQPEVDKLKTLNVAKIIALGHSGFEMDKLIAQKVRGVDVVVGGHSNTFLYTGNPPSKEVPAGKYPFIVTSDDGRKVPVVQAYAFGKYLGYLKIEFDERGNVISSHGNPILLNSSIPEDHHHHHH
The assay can be described thus: ELISA, high plateau value (OD 450 nm). As to the method: as §1, §2

In assay [2] the target is T1, CD73-ND-his. Briefly: ELISA; decline multiple of Top against CD73-ND. The method, then:
as §1, §2

The target of another assay is T4, CD73-ND-V140A (human, UniProt P21589 27-317).
T4 construct: Alanine mutant of CD73-ND
T4 sequence: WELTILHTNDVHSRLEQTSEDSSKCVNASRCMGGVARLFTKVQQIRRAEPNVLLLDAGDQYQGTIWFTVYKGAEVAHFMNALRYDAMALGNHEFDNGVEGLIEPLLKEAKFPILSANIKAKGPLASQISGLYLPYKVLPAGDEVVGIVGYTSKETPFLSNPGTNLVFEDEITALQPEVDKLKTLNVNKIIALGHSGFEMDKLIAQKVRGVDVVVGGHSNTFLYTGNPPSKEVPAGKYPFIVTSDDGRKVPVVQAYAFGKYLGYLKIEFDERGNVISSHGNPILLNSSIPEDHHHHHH
Briefly: ELISA; decline multiple of Top against CD73-ND. The method, then:
as §1, §2

A further assay has as its target T5, CD73-ND-D142A (human, UniProt P21589 27-317).
T5 construct: Alanine mutant of CD73-ND
T5 sequence: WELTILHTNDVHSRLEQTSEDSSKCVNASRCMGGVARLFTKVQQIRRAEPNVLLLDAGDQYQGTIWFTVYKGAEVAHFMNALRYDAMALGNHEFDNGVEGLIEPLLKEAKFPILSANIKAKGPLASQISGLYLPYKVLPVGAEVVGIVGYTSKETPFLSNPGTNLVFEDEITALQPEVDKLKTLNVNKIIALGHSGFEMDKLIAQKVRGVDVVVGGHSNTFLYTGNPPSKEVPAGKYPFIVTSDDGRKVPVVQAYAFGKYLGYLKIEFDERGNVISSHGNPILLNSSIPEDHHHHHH
The assay can be described thus: ELISA; decline multiple of Top against CD73-ND. The method, then: as §1, §2

For a further assay, the target named is T6, CD73-ND-L184A (human, UniProt P21589 27-317).
T6 construct: Alanine mutant of CD73-ND
T6 sequence: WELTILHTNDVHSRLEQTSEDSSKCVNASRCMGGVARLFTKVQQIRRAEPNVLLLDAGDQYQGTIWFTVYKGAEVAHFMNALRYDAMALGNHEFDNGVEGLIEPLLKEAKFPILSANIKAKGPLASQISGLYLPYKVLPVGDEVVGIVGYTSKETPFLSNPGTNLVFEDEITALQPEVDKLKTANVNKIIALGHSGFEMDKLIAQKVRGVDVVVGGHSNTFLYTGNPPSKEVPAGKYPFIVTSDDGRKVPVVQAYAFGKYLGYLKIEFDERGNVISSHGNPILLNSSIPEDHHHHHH
The assay can be described thus: ELISA; decline multiple of Top against CD73-ND. As to the method:
as §1, §2

B1: 48A11-HuV33 (antibody, human IgG4, V domains shown)
VH: QVQLVQSGAEVKKPGASVKVSCKASGYTFTSYWMHWVRQAPGQGLEWIGEINPSIGRTNYNEKFKSRVTLTRDTSTSTAYMELSSLRSEDTAVYYCARRVYGTMDYWGQGTLVTVSS
VL: DIQMTQSPSSLSASVGDRVTITCKASQDINSYLSWFQQKPGKSPKLLIYRANIWVDGVPSRFSGSGSGQDYTFTISSLQPEDIATYYCLQYDELYTFGQGTKVEIK
notes: Humanized
On to B1, for which the Top with CD73-ND-his [1] came out at 1.94; in the assay with CD73-ND-V186A it was 1.62; in the assay with CD73-ND-N187A it was 1.77. Also, the “Ratio(Top)” value stood at 1 fold in the assay with CD73-ND-his [2], 1 fold in the assay with CD73-ND-V140A, 1.1 fold in the assay with CD73-ND-D142A and 1.2 fold in the assay with CD73-ND-L184A.
